The results in this text go back to the supplement of paper PMC10567573.

The labels stand for the following.
B1: ZNF207 (parent)
chain: CHICHKKLYTGPGLAIHCMQVHKE
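Also: lentivirally expressed fusions sorted by FACS into six bins by GFP to DsRed ratio, PSI derived from sequencing read proportions per bin multiplied by bin number.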

Variants of B1 are the subject of this series. In words: protein stability index of a GFP-peptide fusion (GPS, HEK-293T) (PSI 1-6); higher = more stable. Conditions: c terminus: a fixed tail appended.
As for CHICHKKLYTGPGLATHCMQVHKE [I16T], the protein stability index was determined as 3.82. With CHICHKKLYTGPGLAINCMQVHKE [H17N], the protein stability index was determined as 2.25. Then CHICHKKLYTGPGLAIGCMQVHKE [H17G], with 2.82; and CHICHKKLYTGPGLAISCMQVHKE [H17S], with 3.15. Turning to CHICHKKLYTGPGLAIWCMQVHKE [H17W], the protein stability index came out at 3.87.

With CHICHKKLYTGPGLAIPCMQVHKE [H17P], the protein stability index stood at 2.78. For the variant CHICHKKLYTGPGLAIDCMQVHKE [H17D], the protein stability index came out at 2.47. Then CHICHKKLYTGPGLAICCMQVHKE [H17C], with 3.87; and CHICHKKLYTGPGLAIQCMQVHKE [H17Q], with 2.97. Consider CHICHKKLYTGPGLAIECMQVHKE [H17E], for which the protein stability index came out at 3.36. Then CHICHKKLYTGPGLAIICMQVHKE [H17I], with 2.08.

On to CHICHKKLYTGPGLAIACMQVHKE [H17A], for which the protein stability index was 2.15.

Take CHICHKKLYTGPGLAIMCMQVHKE [H17M]: the protein stability index worked out at 2.55. Then CHICHKKLYTGPGLAIFCMQVHKE [H17F], with 3.52. Then CHICHKKLYTGPGLAIVCMQVHKE [H17V], with 3.01. Consider CHICHKKLYTGPGLAIKCMQVHKE [H17K], for which the protein stability index turned out to be 2.19. CHICHKKLYTGPGLAILCMQVHKE [H17L]: the protein stability index was determined as 1.87. Take CHICHKKLYTGPGLAIRCMQVHKE [H17R]: the protein stability index was 2.22. Then CHICHKKLYTGPGLAIYCMQVHKE [H17Y], with 2.67. Take CHICHKKLYTGPGLAITCMQVHKE [H17T]: the protein stability index was 2.7. Then CHICHKKLYTGPGIAIHCMQVHKE [L14I], with 3.3. Turning to CHICHKKLYTGPGGAIHCMQVHKE [L14G], the protein stability index was found to be 3.85.

As to CHICHKKLYTGPGVAIHCMQVHKE [L14V], the protein stability index turned out to be 3. As for CHICHKKLYTGPGTAIHCMQVHKE [L14T], the protein stability index was determined as 3.6.

As for CHICHKKLYTGPGEAIHCMQVHKE [L14E], the protein stability index turned out to be 4.44. For CHICHKKLYTGPGMAIHCMQVHKE [L14M], the protein stability index was determined as 3.45. Then CHICHKKLYTGPGRAIHCMQVHKE [L14R], with 2.79; and CHICHKKLYTGPGQAIHCMQVHKE [L14Q], with 3.78; and CHICHKKLYTGPGHAIHCMQVHKE [L14H], with 3.69.

Turning to CHICHKKLYTGPGAAIHCMQVHKE [L14A], the protein stability index amounted to 3.96. In the case of CHICHKKLYTGPGWAIHCMQVHKE [L14W], the protein stability index is 2.85. For CHICHKKLYTGPGDAIHCMQVHKE [L14D], the protein stability index turned out to be 4.56.

On to CHICHKKLYTGPGKAIHCMQVHKE [L14K], for which the protein stability index was found to be 3.1.

For the variant CHICHKKLYTGPGPAIHCMQVHKE [L14P], the protein stability index is 3.9. Then CHICHKKLYTGPGSAIHCMQVHKE [L14S], with 3.22; and CHICHKKLYTGPGNAIHCMQVHKE [L14N], with 4.65; and CHICHKKLYTGPGCAIHCMQVHKE [L14C], with 3.34.

On to CHICHKKLYTGPGYAIHCMQVHKE [L14Y], for which the protein stability index is 2.94. For the variant CHICHKKLYTGPGFAIHCMQVHKE [L14F], the protein stability index worked out at 2.9. For CHICHKKLYTGPGLAIHCMQVAKE [H22A], the protein stability index was 2.65. Then CHICHKKLYTGPGLAIHCMQVCKE [H22C], with 2.64; and CHICHKKLYTGPGLAIHWMQVHKE [C18W], with 1.93. In the case of CHICHKKLYTGPGLAIHDMQVHKE [C18D], the protein stability index came to 2.75. Then CHICHKKLYTGPGLAIHPMQVHKE [C18P], with 2.47; and CHICHKKLYTGPGLAIHNMQVHKE [C18N], with 2.59; and CHICHKKLYTGPGLAIHVMQVHKE [C18V], with 2.8.

Regarding CHICHKKLYTGPGLAIHSMQVHKE [C18S], the protein stability index was found to be 3.01. Then CHICHKKLYTGPGLAIHTMQVHKE [C18T], with 3.02; and CHICHKKLYTGPGLAIHMMQVHKE [C18M], with 2.47; and CHICHKKLYTGPGLAIHGMQVHKE [C18G], with 2.18.

Turning to CHICHKKLYTGPGLAIHKMQVHKE [C18K], the protein stability index was found to be 3.09.

As to CHICHKKLYTGPGLAIHEMQVHKE [C18E], the protein stability index is 3.57.

As to CHICHKKLYTGPGLAIHRMQVHKE [C18R], the protein stability index worked out at 2.4.

CHICHKKLYTGPGLAIHHMQVHKE [C18H]: the protein stability index turned out to be 2.56. As for CHICHKKLYTGPGLAIHLMQVHKE [C18L], the protein stability index was determined as 3.69. Then CHICHKKLYTGPGLAIHIMQVHKE [C18I], with 2.06; and CHICHKKLYTGPGLAIHFMQVHKE [C18F], with 2.21. Then CHICHKKLYTGPGLAIHAMQVHKE [C18A], with 2.62; and CHICHKKLYTGPGLAIHYMQVHKE [C18Y], with 2.02; and CHICHKKLYTGPGLAIHQMQVHKE [C18Q], with 2.99.

Take CHICHKKLYTGPGLAIHCLQVHKE [M19L]: the protein stability index stood at 2.52. Take CHICHKKLYTGPGLAIHCWQVHKE [M19W]: the protein stability index was found to be 2.48. Then CHICHKKLYTGPGLAIHCTQVHKE [M19T], with 3.73. Then CHICHKKLYTGPGLAIHCGQVHKE [M19G], with 3.41. Then CHICHKKLYTGPGLAIHCFQVHKE [M19F], with 3.75. On to CHICHKKLYTGPGLAIHCYQVHKE [M19Y], for which the protein stability index is 2.94. Then CHICHKKLYTGPGLAIHCAQVHKE [M19A], with 3.57; and CHICHKKLYTGPGLAIHCVQVHKE [M19V], with 2.94. On to CHICHKKLYTGPGLAIHCCQVHKE [M19C], for which the protein stability index is 4.56.

Consider CHICHKKLYTGPGLAIHCHQVHKE [M19H], for which the protein stability index amounted to 4.12. As for CHICHKKLYTGPGLAIHCIQVHKE [M19I], the protein stability index is 3.47. Then CHICHKKLYTGPGLAIHCRQVHKE [M19R], with 3.41; and CHICHKKLYTGPGLAIHCKQVHKE [M19K], with 3.93; and CHICHKKLYTGPGLAIHCDQVHKE [M19D], with 3.36. Then CHICHKKLYTGPGLAIHCNQVHKE [M19N], with 3.9; and CHICHKKLYTGPGLAIHCQQVHKE [M19Q], with 3.81.

As for CHICHKKLYTGPGLAIHCSQVHKE [M19S], the protein stability index was found to be 4.03.

Take CHICHKKLYTGPGLAIHCEQVHKE [M19E]: the protein stability index came out at 4.47. Then CHICHKKLYTGPGLAIHCPQVHKE [M19P], with 3.3; and CHICHKKLYTGGGLAIHCMQVHKE [P12G], with 3.09. Then CHICHKKLYTGLGLAIHCMQVHKE [P12L], with 3.46. Then CHICHKKLYTGMGLAIHCMQVHKE [P12M], with 3.24; and CHICHKKLYTGQGLAIHCMQVHKE [P12Q], with 4.11.

Regarding CHICHKKLYTGSGLAIHCMQVHKE [P12S], the protein stability index turned out to be 3.86. Take CHICHKKLYTGTGLAIHCMQVHKE [P12T]: the protein stability index was 3.18. Then CHICHKKLYTGRGLAIHCMQVHKE [P12R], with 3.88; and CHICHKKLYTGKGLAIHCMQVHKE [P12K], with 3.5.

As for CHICHKKLYTGIGLAIHCMQVHKE [P12I], the protein stability index amounted to 3.03. Then CHICHKKLYTGFGLAIHCMQVHKE [P12F], with 2.41.

With CHICHKKLYTGNGLAIHCMQVHKE [P12N], the protein stability index turned out to be 4.09. Then CHICHKKLYTGWGLAIHCMQVHKE [P12W], with 3.49; and CHICHKKLYTGVGLAIHCMQVHKE [P12V], with 2.05. Then CHICHKKLYTGYGLAIHCMQVHKE [P12Y], with 3.73. Consider CHICHKKLYTGHGLAIHCMQVHKE [P12H], for which the protein stability index came out at 5.06.
